± gives the standard error. Fewer inactive variants are shown than the library holds.
B1: glmS ribozyme (parent)
chain: AUAAAAGCGCCAGAACUACAGAAAUGUAGUUGACGAGGAGGAGGUUUAUCGAAUUUUCGGCGGAUGCCUCCAAA

Legend:
Details in all cases: with glucosamine-6-phosphate
[1] = variants of: B1; assay: self-cleavage kobs at 160 uM GlcN6P; higher = faster cleavage; RNA array
How it was run: (§1)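 kcat and KM were obtained from weighted Michaelis–Menten fits across concentrations of kobs values. Those came from one- or two-exponential decay fits to per-tile medians normalised to baseline and to non-cleaving reference variants. The variants were barcoded ribozymes transcribed in situ by E. coli RNA polymerase on sequenced MiSeq chips and tracked through a hybridised Cy3 probe at 37 °C, with 40 μM to 10 mM glucosamine-6-phosphate in HEPES/KCl/Mg(OAc)2 buffer flowed in.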

[2] = variants of: B1; assay: self-cleavage kobs at 640 uM GlcN6P; higher = faster cleavage; RNA array
How it was run: as §1

[3] = variants of: B1; assay: self-cleavage kobs at 2500 uM GlcN6P; higher = faster cleavage; RNA array
How it was run: as §1

[4] = variants of: B1; assay: self-cleavage kobs at 10000 uM GlcN6P; higher = faster cleavage; RNA array
How it was run: as §1

Variant | self-cleavage kobs at 160 uM GlcN6P [1] [s⁻¹] | self-cleavage kobs at 640 uM GlcN6P [2] [s⁻¹] | self-cleavage kobs at 2500 uM GlcN6P [3] [s⁻¹] | self-cleavage kobs at 10000 uM GlcN6P [4] [s⁻¹]
A12C A42C A52C C61U U69A | < 1e-05 |  |  | 
C8A G13U | < 1e-05 | < 1e-05 | < 1e-05 | < 1e-05
C10U A42C G63A | < 1e-05 | < 1e-05 | < 1e-05 | 
C10A C11G A12C G13U | < 1e-05 |  | < 1e-05 | 
G9U A48U U57A | < 1e-05 |  | < 1e-05 | < 1e-05
G9C C10A G43C C67U | < 1e-05 | < 1e-05 | < 1e-05 | 
G13U G32U C34A G35U | < 1e-05 | < 1e-05 | < 1e-05 | 
A12G A39U A53C | < 1e-05 |  |  | 
C16G G41C G59A | < 1e-05 | < 1e-05 | < 1e-05 | 
A15G A33C C58G | < 1e-05 | < 1e-05 |  | 
C8G G32U C58U | < 1e-05 | < 1e-05 |  | 
A14C G63C U69G | 7.07e-05 ± 2.1e-05 | 6.64e-05 ± 2.3e-05 | 4.71e-05 ± 1.8e-05 | 
C11U A39G G43U C58G C70A | < 1e-05 |  | < 1e-05 | 
G9C U49C | < 1e-05 | < 1e-05 | < 1e-05 | < 1e-05
A15C A42U U46G C50G | < 1e-05 | < 1e-05 | < 1e-05 | 
A12C G43U A53C | < 1e-05 |  |  | 
A15G U55G C71G | 0.00025 ± 5.3e-05 | 0.000408 ± 9.6e-05 | 0.000866 ± 0.00028 | 
C16U G43U G59U | < 1e-05 | < 1e-05 |  | 
C10G G13A U31A C50A G59U | < 1e-05 |  |  | 
G9C G38C G63U | < 1e-05 |  | < 1e-05 | 
G29C A33C C61G C68U | < 1e-05 | < 1e-05 |  | < 1e-05
A15G G51C | < 1e-05 | < 1e-05 | < 1e-05 | < 1e-05
G29C G44A G60A A64G | < 1e-05 | < 1e-05 | < 1e-05 | 
A14C U30G A36U A53G | < 1e-05 | < 1e-05 | < 1e-05 | 
G13U G32A G41C G63U C71A | < 1e-05 | < 1e-05 | < 1e-05 | 
C10G G29C C50G C58G A64U C70A | 0.000119 ± 3.1e-05 | 0.000201 ± 6.9e-05 | 0.000165 ± 4e-05 | 

Variant | self-cleavage kobs at 160 uM GlcN6P [1] [s⁻¹] | self-cleavage kobs at 640 uM GlcN6P [2] [s⁻¹] | self-cleavage kobs at 2500 uM GlcN6P [3] [s⁻¹] | self-cleavage kobs at 10000 uM GlcN6P [4] [s⁻¹]
C11G A14C U69A | 0.000527 ± 0.00014 |  | 9.25e-05 ± 3.6e-05 | 
G29A G35A | < 1e-05 |  | < 1e-05 | 
G9A G44C C68A | < 1e-05 | < 1e-05 | < 1e-05 | 
C16U U55C | 0.00153 ± 0.00037 |  | 0.00585 ± 0.0013 | 
C16U G29C G44U C67G | 0.000224 ± 0.0001 |  |  | 
C11G A36C G41C G60A | < 1e-05 | < 1e-05 | < 1e-05 | 
C10U A42G A53U | < 1e-05 |  |  | 
C8A A15U U47C U55A G63C U65G | < 1e-05 |  |  | 
C8G U46C | < 1e-05 | < 1e-05 | < 1e-05 | < 1e-05
C8G C61A C68U | < 1e-05 |  |  | 
U31A G43A | < 1e-05 | < 1e-05 |  | 2.99e-05 ± 9.3e-06
C11G A14G U31C A42G U56G A64U U65A | < 1e-05 | < 1e-05 |  | 
G29A U30G G35A G38U U46A C71G | < 1e-05 |  |  | 
G9U G37C | < 1e-05 | < 1e-05 | < 1e-05 | < 1e-05
A12U U45G U56A | 0.000953 ± 0.00021 | 0.00298 ± 0.0006 |  | 
G13A C67U | 2.9e-05 ± 1.4e-05 | 4.93e-05 ± 8.8e-06 | 0.000122 ± 1.2e-05 | 0.000405 ± 9e-05
G32U G60C | < 1e-05 | < 1e-05 | < 1e-05 | 
A14G U31C U56A | 0.0016 ± 0.00031 | 0.00939 ± 0.0013 | 0.0277 ± 0.0066 | 
C8G C34G A52G | < 1e-05 | < 1e-05 |  | 
G29U G35U G38U A52G | < 1e-05 | < 1e-05 |  | 
C8U G60U C68U | < 1e-05 | < 1e-05 | < 1e-05 | < 1e-05
G13C C16A C68U | < 1e-05 |  |  | 
A14U U31G C67A | 7.69e-05 ± 2.3e-05 | 0.000354 ± 7.7e-05 | 0.000746 ± 0.00014 | 
C16U G43U U57C | < 1e-05 | < 1e-05 | < 1e-05 | 
A14G G35U G40A | < 1e-05 |  |  | 
U30A A48U G62A | < 1e-05 | < 1e-05 | < 1e-05 | 

Variant | self-cleavage kobs at 160 uM GlcN6P [1] [s⁻¹] | self-cleavage kobs at 640 uM GlcN6P [2] [s⁻¹] | self-cleavage kobs at 2500 uM GlcN6P [3] [s⁻¹] | self-cleavage kobs at 10000 uM GlcN6P [4] [s⁻¹]
G29A U47G A53G | 6.62e-05 ± 2e-05 | 0.000173 ± 3.2e-05 | 0.000477 ± 0.00013 | 
A14G A15G G35U | < 1e-05 | < 1e-05 | < 1e-05 | 
G13A C34G G62U | < 1e-05 | < 1e-05 |  | 
C16U G37U C68G U69G | 4.65e-05 ± 2.2e-05 | 0.000144 ± 7.1e-05 | 4.23e-05 ± 1.8e-05 | 
C8G C16U C34U U65G | < 1e-05 |  |  | 
C10G G37C A48U C61A U69C | < 1e-05 |  | < 1e-05 | 
C10U C11G A14G G43C A53C | < 1e-05 | < 1e-05 | < 1e-05 | 
C11G U47G | < 1e-05 |  | < 1e-05 | < 1e-05
C8G C11G C16G C34A | < 1e-05 |  | < 1e-05 | 
G13U A36U G43A G51A C67G C70U | < 1e-05 |  | < 1e-05 | 
A14G G29U A52C C68A | 0.000918 ± 0.00046 | 0.000113 ± 4.7e-05 |  | 
G9U A39G | < 1e-05 |  | < 1e-05 | 
G29U A42G A53U | 0.000316 ± 6.8e-05 | 0.00125 ± 0.00026 | 0.00271 ± 0.00069 | 
G13U U31C A33U G41A G43C | < 1e-05 |  |  | 
G29U A39G U56A | 8.2e-05 ± 2.8e-05 | 0.001 ± 0.00039 | 0.00181 ± 0.00055 | 
A14U U31A U47A | 0.000611 ± 0.00016 | 0.00172 ± 0.00055 |  | 
C16G U47A C50U A53G | < 1e-05 |  |  | 
C8A C34U G40U G41U U45A G62U | < 1e-05 |  |  | 
G9C G41A | < 1e-05 |  | < 1e-05 | < 1e-05
C11A G41U G43C | < 1e-05 | < 1e-05 |  | 
A12U U31G U69C | 0.000336 ± 6.5e-05 | 0.000408 ± 0.00019 | 0.0026 ± 0.00042 | 
G9C A15U G43U | < 1e-05 | < 1e-05 | < 1e-05 | 
G9U U45C | < 1e-05 | < 1e-05 | < 1e-05 | < 1e-05
G13A A42G G43U C70A | < 1e-05 | < 1e-05 |  | < 1e-05
G13C C34G G35C G43U A48C C67G C70U | < 1e-05 | < 1e-05 |  | 
C8A A33U A64G C67U C71G | < 1e-05 |  |  | 

Variant | self-cleavage kobs at 160 uM GlcN6P [1] [s⁻¹] | self-cleavage kobs at 640 uM GlcN6P [2] [s⁻¹] | self-cleavage kobs at 2500 uM GlcN6P [3] [s⁻¹] | self-cleavage kobs at 10000 uM GlcN6P [4] [s⁻¹]
U31A A33G A48G | < 1e-05 |  |  | 
C10G G32U C34U G40U G41C | < 1e-05 | < 1e-05 | < 1e-05 | 
G9U G29A G35U U46G | < 1e-05 | < 1e-05 | < 1e-05 | 
C10G G40C | < 1e-05 | < 1e-05 |  | < 1e-05
A12C G29C A52C A64C | < 1e-05 | < 1e-05 |  | 
A12G G41U G51C C71A | < 1e-05 | < 1e-05 | < 1e-05 | 
U31G C68G | 0.000192 ± 8.2e-05 |  | 6.11e-05 ± 1.1e-05 | 3.16e-05 ± 8.9e-06
G9U A33C C67G | < 1e-05 |  | < 1e-05 | 
G29U G37C A39U | < 1e-05 | < 1e-05 |  | 
A33G A53C C71U | < 1e-05 |  |  | 
C10A G40A C71A | < 1e-05 | < 1e-05 |  | 
C10A A52U C68A | 7.21e-05 ± 2.5e-05 |  |  | 
A33C G41A | < 1e-05 | < 1e-05 |  | 
A14G G35A | < 1e-05 | < 1e-05 | < 1e-05 | < 1e-05
A15U C34U C50G | 0.000153 ± 3.2e-05 |  | 0.000132 ± 3.4e-05 | 
C11A C58U C68A | 7.67e-05 ± 3.2e-05 |  | 7.25e-05 ± 2.7e-05 | 5.61e-05 ± 1.5e-05
C19A U65A | 0.000107 ± 4.8e-05 |  | 0.00137 ± 0.00051 | 
C8A C70G | < 1e-05 |  |  | 
A15U G38C C71A | < 1e-05 |  | < 1e-05 | 
G13C C68U C71U | < 1e-05 | < 1e-05 |  | 
U31G G41U U47G G62U A64U C70G | < 1e-05 | < 1e-05 |  | 
G9A G29A A42G A48C U65A | < 1e-05 | < 1e-05 | < 1e-05 | 
C8U G35C C50U G51U C61G | < 1e-05 |  | < 1e-05 | 
G29U U65A C68G | 5.02e-05 ± 1.1e-05 | 6.79e-05 ± 1.4e-05 | 3.55e-05 ± 1.3e-05 | 
A12U U69G C70A | 7.03e-05 ± 2.1e-05 | 8.9e-05 ± 2.3e-05 | 3.11e-05 ± 1.5e-05 | 
G9C G37A | < 1e-05 | < 1e-05 | < 1e-05 | 
